The assay deals with GST-SVIP (Drosophila SVIP, CG32039) (Drosophila) (UniProt Q8IQC6). The assay is described as follows: pull-down; in vitro binding titration assay of GST-SVIP with MBP-VCP wild type and disease-relevant mutants; binding curves and affinities in Fig. 7b-e.
Chain of GST-SVIP (Drosophila SVIP, CG32039) (Drosophila) (Q8IQC6 entry or part of it): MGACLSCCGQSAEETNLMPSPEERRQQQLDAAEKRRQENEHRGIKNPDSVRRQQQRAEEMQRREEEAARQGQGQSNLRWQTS

In the case of “MBP-VCP^P134L (Drosophila VCP) (from UniProt Q7KN62 1-801) (domain or fragment)”, the fold reduction of SVIP–VCP affinity against wild type was above 30 fold.

The values above are taken from article PMC7820495.
